One assay deals with T1, HKU1 full length Spike (human coronavirus HKU1, UniProt Q5MQD0 13-1276).
T1 sequence: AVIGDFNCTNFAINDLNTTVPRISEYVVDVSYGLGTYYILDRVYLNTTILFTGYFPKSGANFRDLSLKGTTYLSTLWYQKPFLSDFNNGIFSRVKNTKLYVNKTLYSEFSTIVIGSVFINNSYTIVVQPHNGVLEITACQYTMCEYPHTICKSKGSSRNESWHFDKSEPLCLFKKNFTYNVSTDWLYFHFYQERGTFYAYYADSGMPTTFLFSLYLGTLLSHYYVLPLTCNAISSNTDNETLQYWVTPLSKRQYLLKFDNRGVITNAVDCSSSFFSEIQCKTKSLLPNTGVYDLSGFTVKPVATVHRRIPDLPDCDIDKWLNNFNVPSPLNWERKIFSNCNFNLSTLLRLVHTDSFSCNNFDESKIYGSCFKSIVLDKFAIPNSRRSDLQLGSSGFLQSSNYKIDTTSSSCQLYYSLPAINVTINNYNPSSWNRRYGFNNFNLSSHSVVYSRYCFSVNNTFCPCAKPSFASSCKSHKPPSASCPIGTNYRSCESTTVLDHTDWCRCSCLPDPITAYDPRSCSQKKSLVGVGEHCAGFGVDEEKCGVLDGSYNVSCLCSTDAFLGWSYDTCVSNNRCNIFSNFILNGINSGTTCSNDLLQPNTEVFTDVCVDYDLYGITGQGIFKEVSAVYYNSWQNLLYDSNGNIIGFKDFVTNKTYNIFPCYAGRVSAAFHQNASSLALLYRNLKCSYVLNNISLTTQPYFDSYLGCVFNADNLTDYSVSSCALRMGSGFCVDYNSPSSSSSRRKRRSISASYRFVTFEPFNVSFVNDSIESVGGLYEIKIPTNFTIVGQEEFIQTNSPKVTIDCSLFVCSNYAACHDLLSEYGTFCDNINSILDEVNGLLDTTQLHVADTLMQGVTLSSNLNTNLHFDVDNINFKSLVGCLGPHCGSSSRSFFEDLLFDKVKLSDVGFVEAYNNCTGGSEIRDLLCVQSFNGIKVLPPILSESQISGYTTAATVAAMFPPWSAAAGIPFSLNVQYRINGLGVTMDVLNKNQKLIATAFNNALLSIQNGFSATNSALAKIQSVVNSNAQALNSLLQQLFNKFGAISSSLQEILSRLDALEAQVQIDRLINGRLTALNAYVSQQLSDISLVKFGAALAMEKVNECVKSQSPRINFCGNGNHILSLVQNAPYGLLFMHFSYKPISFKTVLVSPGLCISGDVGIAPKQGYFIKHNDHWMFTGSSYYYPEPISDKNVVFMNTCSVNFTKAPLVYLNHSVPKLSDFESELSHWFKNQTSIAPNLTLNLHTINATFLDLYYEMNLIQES

The target in assay [1] is SARS-CoV full length Spike (SARS-CoV, UniProt P59594 14-1190).
For the next assay, the target named is T2, MERS full length Spike (MERS-CoV, UniProt K9N5Q8 18-1291).
T2 sequence: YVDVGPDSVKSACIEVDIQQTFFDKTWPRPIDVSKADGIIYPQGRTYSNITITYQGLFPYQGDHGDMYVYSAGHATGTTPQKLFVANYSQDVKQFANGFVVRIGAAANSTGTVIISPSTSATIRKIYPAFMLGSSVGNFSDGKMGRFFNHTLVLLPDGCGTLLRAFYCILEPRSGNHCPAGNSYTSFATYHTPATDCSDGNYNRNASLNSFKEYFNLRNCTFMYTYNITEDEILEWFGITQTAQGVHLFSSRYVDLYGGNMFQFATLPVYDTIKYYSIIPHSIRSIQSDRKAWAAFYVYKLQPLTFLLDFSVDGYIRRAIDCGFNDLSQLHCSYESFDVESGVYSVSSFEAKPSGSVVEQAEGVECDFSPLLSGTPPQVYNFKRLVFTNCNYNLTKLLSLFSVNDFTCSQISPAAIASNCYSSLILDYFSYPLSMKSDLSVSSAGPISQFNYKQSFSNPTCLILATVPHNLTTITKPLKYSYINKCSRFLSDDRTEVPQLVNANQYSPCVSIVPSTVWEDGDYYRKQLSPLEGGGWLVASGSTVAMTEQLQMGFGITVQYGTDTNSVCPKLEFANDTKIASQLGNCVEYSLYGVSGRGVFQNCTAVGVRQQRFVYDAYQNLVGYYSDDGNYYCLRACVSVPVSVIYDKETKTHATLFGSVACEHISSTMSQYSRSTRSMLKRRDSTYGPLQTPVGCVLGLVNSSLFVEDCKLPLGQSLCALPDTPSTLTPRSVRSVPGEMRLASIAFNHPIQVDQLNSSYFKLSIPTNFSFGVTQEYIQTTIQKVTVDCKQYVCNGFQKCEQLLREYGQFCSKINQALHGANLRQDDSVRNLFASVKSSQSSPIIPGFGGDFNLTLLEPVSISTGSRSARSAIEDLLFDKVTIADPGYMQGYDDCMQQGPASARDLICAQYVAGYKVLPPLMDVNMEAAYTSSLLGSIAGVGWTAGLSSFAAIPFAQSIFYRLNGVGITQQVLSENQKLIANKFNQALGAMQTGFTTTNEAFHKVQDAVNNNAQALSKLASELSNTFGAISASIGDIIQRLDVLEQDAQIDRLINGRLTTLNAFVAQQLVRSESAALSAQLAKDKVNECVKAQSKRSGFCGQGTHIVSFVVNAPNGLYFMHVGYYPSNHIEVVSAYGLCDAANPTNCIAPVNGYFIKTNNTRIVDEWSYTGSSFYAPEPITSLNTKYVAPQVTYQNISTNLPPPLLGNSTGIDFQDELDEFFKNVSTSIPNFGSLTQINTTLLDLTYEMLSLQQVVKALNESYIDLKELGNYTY

B1: mAb 970 (antibody, V domains shown)
VH: EVQLVESGGGLVQPGGSLRLSCAASGFTFSSYWMSWVRQAPGKGLEWVANINKDGSEKYYVDSVKGRFTISRDNAKNSLYLQMNSLRAEDTAVYFCARDYRYFDWLLSQIDLEIDYFDYWGQGTLVTVSS
VL: not shown
Take B1: the entries for the “median fluorescence intensity, fold over isotype control” value (“median fluorescence intensity, fold” below) (in the assay with HKU1 full length Spike; in assay [1]; in the assay with MERS full length Spike) were 0.88 fold over isotype, 547 fold over isotype and 0.87 fold over isotype, respectively.

B2: mAb 1075 (antibody, V domains shown)
VH: QVQLVQSGAEVKKPGASVKVSCKVSGYTLIELSMHWVRQAPGKGLEWMGGFDPEDGETIYAQKFQGRVTMTEDTSTDTAYMELSSLRSEDTAVYYCATEWAYYGSGSYLGYWGQGTLVTVSS
VL: EIVMTQSPATLSVSPGERATLSCRASQSVSSNLAWFQQKPGQAPRLLIYGASTRVTVIPARFSGSGSGTEFTLTISSLQSEDFAVYYCQQYNNWPRTFGQGTKVEIKR
For B2, the results for the “median fluorescence intensity, fold” value (with HKU1 full length Spike; in assay [1]; with MERS full length Spike) were 0.93 fold over isotype, 0.91 fold over isotype and 0.89 fold over isotype, respectively.

B3: mAb 1036 (antibody, V domains shown)
VH: QVQLVQSGAEVKKPGSSVKVSCKASGGTLSSYTISWVRQAPGQGLEWMGRIIPILGIADYAQKFQGRVTITADKSTTTAYMDLSSLGSEDTALYYCASAPKDWSSGFDYYYGMDVWGQGTMVTVSS
VL: DIVMTQTPLSLSVTPGQPASISCKSSQSLLNSDGKTYLYWYLQKAGQPPQLLIYEVSNRFSGVPERFSGSGSGTDFTLKISRVEAEDVGVYYCMQSVQLPPYTFGQGTKLEITR
Regarding B3, the “median fluorescence intensity, fold” value was found to be 0.94 fold over isotype in the assay with HKU1 full length Spike, 1.05 fold over isotype in assay [1] and 1.07 fold over isotype with MERS full length Spike.

B4: mAb 896 (antibody, V domains shown)
VH: EVQLVESGGGVVQPGGSLRLSCAASGFTFDDYAMHWVRQVPGKGLEWVSLISGDGGSTYYADSVKGRFTISRDNSKNSLYVQMNSLRTEDTALYYCVKDRGGSGWDLNHYYYGMDVWGQGTTVTVSS
VL: DIQLTQSPSFLSASVGDRVTVTCRASQGISSYLAWYQQKPGKAPKLLIYAAYTLQSGVPSRFSGSGSETEFTLTISSLQPEDFATYYCQQVKSYPLTFGGGTKVEIKR
B4: the “median fluorescence intensity, fold” value with HKU1 full length Spike is 1.07 fold over isotype; in assay [1], 0.97 fold over isotype; in the assay with MERS full length Spike, 1.02 fold over isotype.

B5: mAb 936 (antibody, V domains shown)
VH: EVQLVESGGGLVQPGRSLTLSCAGSGFTFDDYAMHWVRQAPGKGLEWVSGISWNSGSIGYADSVKGRFTISRDNAKNSLYLQMNSLRAEDTALYYCAKDVSYDSSGYYNNAFDIWGQGTMVTVSS
VL: DIQLTQSPSFLSASVGDRVTITCRASQGISSYLAWYQQKPGKAPKLLIYAASTLQSGVPSRFSGSGSGTEFTLTISSLQPEDFATYYCQQLYSYPVTFGQGTRLEIKR
For B5, the “median fluorescence intensity, fold” value with HKU1 full length Spike was determined as 1.02 fold over isotype; in assay [1], 0.95 fold over isotype; in the assay with MERS full length Spike, 0.92 fold over isotype.

B6: mAb 894 (antibody, V domains shown)
VH: QVQLVQSGAEVKKPGASVKVSCKVSGYTLPELSIHWVRQAPGKGLEWMGGFDPENAETIYTQKFQGRLTMTEDTSTDTAYMELSSLRSEDTAMYYCATSFVLMPAALGDYSYYYGMDVWGQGTTVTVSS
VL: not shown
Regarding B6, the “median fluorescence intensity, fold” value with HKU1 full length Spike came out at 1.18 fold over isotype; in assay [1], 1.1 fold over isotype; with MERS full length Spike it was 1.06 fold over isotype.

B7: mAb 923 (antibody, V domains shown)
VH: EVQLVESGGGVVRPGGSLRLSCAASGFIFDDYDMTWVRQAPGKGLEWVSGISWNGGNTGYADSVKGRFTISRDNAKNSLYLQMNSLRAEDTALYHCAVIMSPIPRYSGYDWAGGAFDIWGQGTMVTVSS
VL: SSELTQDPAVSVALGQTVRITCQGDSLRSYYASWYQQKPGQVPILVIYDKNNRPSGIPDRFSGSSSGNTASLTITGAQAEDEADYYCNSRDSSGNAVVFGGGTKLTVLG
As for B7, the “median fluorescence intensity, fold” value in the assay with HKU1 full length Spike turned out to be 1.42 fold over isotype; in assay [1], 773 fold over isotype; with MERS full length Spike it was 1.08 fold over isotype.

B8: mAb 1015 (antibody, V domains shown)
VH: EVQLVESGGGLVQPGGSLRLSCAASGFTFSSYWMHWVRQAPGKGLVWVSHINSDGSSTSYADSVKGRFTISRDNAKNTLYLQMNSLRAEDTAVYYCARGLRYFDLDVWGQGTTVTVSS
VL: QSVLTQPPSVSEAPRQRVTISCSGSSSNIGNNAVNWYQQLPGKAPKLLIFYDDLLPSGVSDRFSGSKSGTSASLAISGLQSEDEADYYCAAWDDSLNGGVFGGGTKLTVLG
Consider B8, for which the “median fluorescence intensity, fold” value came to 1.04 fold over isotype in the assay with HKU1 full length Spike, 0.91 fold over isotype in assay [1] and 0.85 fold over isotype with MERS full length Spike.

B9: mAb 1037 (antibody, V domains shown)
VH: QITLKESGPTLVKPTQTLTLTCTFSGFSLSTSGVGVGWIRQPPGKALEWLALIYWDDDKRYSPSLKSRLTITKDTSKNQVVLTMTNMDPVDTATYYCAHHTITRINDYWGQGTLVTVSS
VL: QSALTQPASVSGSPGQSITISCTATSSDVGAYNYVSWYQQHPGKAPKLMIYDVSKRPSGVSNRFSGSKSGNTASLTISGLQAEDEADYYCSSYTSSSTVFGGGTKLTVLG
Consider B9, for which the “median fluorescence intensity, fold” value amounted to 1.43 fold over isotype with HKU1 full length Spike, 4.36 fold over isotype in assay [1] and 1.06 fold over isotype in the assay with MERS full length Spike.

B10: mAb 1135 (antibody, V domains shown)
VH: EVQLVESGGGLVQPGRSLRLSCAASGLTFEDYAMHWVRQVPGKGLEWVSGISWNSGTIGYADSVKGRFIISRDNAKNSLYLQMRSLRAEDTALYYCAKDVGFGELLYYAFDIWGQGTMVTVSS
VL: QSALTQPASVSGSPGQSITISCTGTSSDVGGYNYVSWYQQHPGKAPKLMIYDVSNRPSGVSNRFSGSKSGNTASLTISGLQAEDEADYYCSSYTSSSTVVFGGGTKLTVLG
Regarding B10, the “median fluorescence intensity, fold” value with HKU1 full length Spike is 0.83 fold over isotype; in assay [1] it was 0.92 fold over isotype; with MERS full length Spike, 0.93 fold over isotype.

For the origin of these results see US20220356229A1 (published 2022).
